# According to patent US20250066503A1, “CELL INJURY INDUCING THERAPEUTIC DRUG FOR USE IN CANCER THERAPY” (CHUGAI SEIYAKU KABUSHIKI KAISHA, priority 2016, published 2025):
# Changes are numbered by the printed parent chain.
# B1: TR01H047-E22Hh/none-Hi-Kn010G3/L0000-k0 (antibody, V domains shown)
# VH: QVQLVESGGGLVQPGRSLRLSCAASGFTFSNAWMHWVRQAPGKGLEWVAQIKDKSNNYATYYAESVKGRFTISRDDSKNSIYLQMNSLKTEDTAVYYCRYVHYSASYGVDIWGQGTTVTVSS
# VL: DIVMTQSPLSLPVTPGEPASISCRSSQSLVHSNRNTYLHWYQQKPGQAPRLLIYKVSNRFSGVPDRFSGSGSGTDFTLKISRVEAEDVGVYYCGQGTQVPYTFGQGTKLEIKR
# notes: one-arm
# B2: TR01H067-E22Hh/none-Hi-Kn010G3/L0201-k0 (antibody, V domains shown)
# VH: B1 VH with N56Q, I81L, S104A, I111A
# VL: B1 VL with S28P, L29P
# notes: one-arm
# B3: TR01H083-E22Hh/none-Hi-Kn010G3/L0222-k0 (antibody, V domains shown)
# VH: B1 VH with D75A, S104A, S106G
# VL: B1 VL with L29P, L38I, H39Q, G94Y
# notes: one-arm
# B4: TR01H053-E22Hh/none-Hi-Kn010G3/L0000-k0 (antibody, V domains shown)
# VH: B1 VH with N56Q, D75A, I81L, I111A
# VL: B1 VL
# notes: one-arm
# B5: TR01H083-E22Hh/none-Hi-Kn010G3/L0201-k0 (antibody, V domains shown)
# VH: B1 VH with D75A, S104A, S106G
# VL: B1 VL with S28P, L29P
# notes: one-arm
# B6: TR01H073-E22Hh/none-Hi-Kn010G3/L0000-k0 (antibody, V domains shown)
# VH: B1 VH with N56Q, I81L, S104A
# VL: B1 VL
# notes: one-arm
# B7: TR01H076-E22Hh/none-Hi-Kn010G3/L0000-k0 (antibody, V domains shown)
# VH: B1 VH with L11V, R16G, N56Q, D75A, S104A, I111Y
# VL: B1 VL
# notes: one-arm
# B8: TR01H067-E22Hh/none-Hi-Kn010G3/L0000-k0 (antibody, V domains shown)
# VH: B1 VH with N56Q, I81L, S104A, I111A
# VL: B1 VL
# notes: one-arm
# B9: TR01H067-E22Hh/none-Hi-Kn010G3/L0212-k0 (antibody, V domains shown)
# VH: B1 VH with N56Q, I81L, S104A, I111A
# VL: B1 VL with S25P, L29P, G94Y
# notes: one-arm
# B10: TR01H083-E22Hh/none-Hi-Kn010G3/L0212-k0 (antibody, V domains shown)
# VH: B1 VH with D75A, S104A, S106G
# VL: B1 VL with S25P, L29P, G94Y
# notes: one-arm
# B11: TR01H082-E22Hh/none-Hi-Kn010G3/L0203-k0 (antibody, V domains shown)
# VH: B1 VH with N56Q, I81L, S104A, S106G, I111A
# VL: B1 VL with L29P, L38I
# notes: one-arm
# B12: TR01H083-E22Hh/none-Hi-Kn010G3/L0011-k0 (antibody, V domains shown)
# VH: B1 VH with D75A, S104A, S106G
# VL: B1 VL with S28P
# notes: one-arm
# B13: TR01H067-E22Hh/none-Hi-Kn010G3/L0011-k0 (antibody, V domains shown)
# VH: B1 VH with N56Q, I81L, S104A, I111A
# VL: B1 VL with S28P
# notes: one-arm
# B14: TR01H071-E22Hh/none-Hi-Kn010G3/L0000-k0 (antibody, V domains shown)
# VH: B1 VH with D75A, S104A
# VL: B1 VL
# notes: one-arm
# B15: TR01H052-E22Hh/none-Hi-Kn010G3/L0000-k0 (antibody, V domains shown)
# VH: B1 VH with N56Q, D75A, I81L
# VL: B1 VL
# notes: one-arm
# B16: TR01H050-E22Hh/none-Hi-Kn010G3/L0000-k0 (antibody, V domains shown)
# VH: B1 VH with N56Q, I111Y
# VL: B1 VL
# notes: one-arm
# B17: TR01H070-E22Hh/none-Hi-Kn010G3/L0000-k0 (antibody, V domains shown)
# VH: B1 VH with L11V, R16G, N56Q, I81L, S104A, I111Y
# VL: B1 VL
# notes: one-arm
# B18: TR01H049-E22Hh/none-Hi-Kn010G3/L0000-k0 (antibody, V domains shown)
# VH: B1 VH with N56Q, I111A
# VL: B1 VL
# notes: one-arm
# B19: TR01H084-E22Hh/none-Hi-Kn010G3/L0000-k0 (antibody, V domains shown)
# VH: B1 VH with L11V, R16G, N56Q, D75A, S104A, S106G
# VL: B1 VL
# notes: one-arm
# B20: TR01H082-E22Hh/none-Hi-Kn010G3/L0000-k0 (antibody, V domains shown)
# VH: B1 VH with N56Q, I81L, S104A, S106G, I111A
# VL: B1 VL
# notes: one-arm
# B21: TR01H081-E22Hh/none-Hi-Kn010G3/L0000-k0 (antibody, V domains shown)
# VH: B1 VH with N56Q, D75A, S104A, S106G
# VL: B1 VL
# notes: one-arm
# B22: TR01H075-E22Hh/none-Hi-Kn010G3/L0000-k0 (antibody, V domains shown)
# VH: B1 VH with N56Q, I81L, S104A, I111Y
# VL: B1 VL
# notes: one-arm
# B23: TR01H083-E22Hh/none-Hi-Kn010G3/L0000-k0 (antibody, V domains shown)
# VH: B1 VH with D75A, S104A, S106G
# VL: B1 VL
# notes: one-arm
# B24: TR01H065-E22Hh/none-Hi-Kn010G3/L0000-k0 (antibody, V domains shown)
# VH: B1 VH with N56Q, S104A, I111A
# VL: B1 VL
# notes: one-arm
# B25: TR01H054-E22Hh/none-Hi-Kn010G3/L0000-k0 (antibody, V domains shown)
# VH: B1 VH with N56Q, D75A, I81L, I111Y
# VL: B1 VL
# notes: one-arm
# B26: TR01H066-E22Hh/none-Hi-Kn010G3/L0000-k0 (antibody, V domains shown)
# VH: B1 VH with N56Q, D75A, I81L, S104A, I111A
# VL: B1 VL
# notes: one-arm
# B27: TR01H068-E22Hh/none-Hi-Kn010G3/L0000-k0 (antibody, V domains shown)
# VH: B1 VH with L11V, R16G, N56Q, I81L, S104A, I111A
# VL: B1 VL
# notes: one-arm
# B28: TR01H072-E22Hh/none-Hi-Kn010G3/L0000-k0 (antibody, V domains shown)
# VH: B1 VH with N56Q, D75A, S104A
# VL: B1 VL
# notes: one-arm
# B29: TR01H082-E22Hh/none-Hi-Kn010G3/L0212-k0 (antibody, V domains shown)
# VH: B1 VH with N56Q, I81L, S104A, S106G, I111A
# VL: B1 VL with S25P, L29P, G94Y
# notes: one-arm
# B30: TR01H051-E22Hh/none-Hi-Kn010G3/L0000-k0 (antibody, V domains shown)
# VH: B1 VH with D75A, I81L
# VL: B1 VL
# notes: one-arm
# B31: TR01H074-E22Hh/none-Hi-Kn010G3/L0000-k0 (antibody, V domains shown)
# VH: B1 VH with L11V, R16G, N56Q, D75A, S104A
# VL: B1 VL
# notes: one-arm
# B32: TR01H048-E22Hh/none-Hi-Kn010G3/L0000-k0 (antibody, V domains shown)
# VH: B1 VH with N56Q
# VL: B1 VL
# notes: one-arm
# B33: TR01H081-E22Hh/none-Hi-Kn010G3/L0201-k0 (antibody, V domains shown)
# VH: B1 VH with N56Q, D75A, S104A, S106G
# VL: B1 VL with S28P, L29P
# notes: one-arm
# B34: TR01H082-E22Hh/none-Hi-Kn010G3/L0011-k0 (antibody, V domains shown)
# VH: B1 VH with N56Q, I81L, S104A, S106G, I111A
# VL: B1 VL with S28P
# notes: one-arm
# B35: TR01H067-E22Hh/none-Hi-Kn010G3/L0222-k0 (antibody, V domains shown)
# VH: B1 VH with N56Q, I81L, S104A, I111A
# VL: B1 VL with L29P, L38I, H39Q, G94Y
# notes: one-arm
# B36: TR01H055-E22Hh/none-Hi-Kn010G3/L0000-k0 (antibody, V domains shown)
# VH: B1 VH with I81L
# VL: B1 VL
# notes: one-arm
# B37: TR01H082-E22Hh/none-Hi-Kn010G3/L0222-k0 (antibody, V domains shown)
# VH: B1 VH with N56Q, I81L, S104A, S106G, I111A
# VL: B1 VL with L29P, L38I, H39Q, G94Y
# notes: one-arm
# B38: TR01H067-E22Hh/none-Hi-Kn010G3/L0203-k0 (antibody, V domains shown)
# VH: B1 VH with N56Q, I81L, S104A, I111A
# VL: B1 VL with L29P, L38I
# notes: one-arm
# B39: TR01H064-E22Hh/none-Hi-Kn010G3/L0000-k0 (antibody, V domains shown)
# VH: B1 VH with A23S, N56Q, D75A, S104A, I111A
# VL: B1 VL
# notes: one-arm
# B40: TR01H061-E22Hh/none-Hi-Kn010G3/L0222-k0 (antibody, V domains shown)
# VH: B1 VH with N56Q, D75A, S104A
# VL: B1 VL with L29P, L38I, H39Q, G94Y
# notes: one-arm
# B41: TR01H082-E22Hh/none-Hi-Kn010G3/L0201-k0 (antibody, V domains shown)
# VH: B1 VH with N56Q, I81L, S104A, S106G, I111A
# VL: B1 VL with S28P, L29P
# notes: one-arm
# B42: TR01H069-E22Hh/none-Hi-Kn010G3/L0000-k0 (antibody, V domains shown)
# VH: B1 VH with L11V, R16G, N56Q, I81L, S104A
# VL: B1 VL
# notes: one-arm
# B43: TR01H061-E22Hh/none-Hi-Kn010G3/L0000-k0 (antibody, V domains shown)
# VH: B1 VH with N56Q, D75A, S104A
# VL: B1 VL
# notes: one-arm
# B44: TR01H057-E22Hh/none-Hi-Kn010G3/L0000-k0 (antibody, V domains shown)
# VH: B1 VH with N56Q, I81L, I111A
# VL: B1 VL
# notes: one-arm
# B45: TR01H081-E22Hh/none-Hi-Kn010G3/L0011-k0 (antibody, V domains shown)
# VH: B1 VH with N56Q, D75A, S104A, S106G
# VL: B1 VL with S28P
# notes: one-arm
# B46: TR01H071-E22Hh/none-Hi-Kn010G3/L0222-k0 (antibody, V domains shown)
# VH: B1 VH with D75A, S104A
# VL: B1 VL with L29P, L38I, H39Q, G94Y
# notes: one-arm
# B47: TR01H063-E22Hh/none-Hi-Kn010G3/L0000-k0 (antibody, V domains shown)
# VH: B1 VH with L11V, R16G, N56Q, D75A, S104A, I111A
# VL: B1 VL
# notes: one-arm
# B48: TR01H058-E22Hh/none-Hi-Kn010G3/L0000-k0 (antibody, V domains shown)
# VH: B1 VH with N56Q, I81L, I111Y
# VL: B1 VL
# notes: one-arm
# B49: TR01H056-E22Hh/none-Hi-Kn010G3/L0000-k0 (antibody, V domains shown)
# VH: B1 VH with N56Q, I81L
# VL: B1 VL
# notes: one-arm
# Molecular target: T1, soluble human CD3 epsilon chain (human, UniProt P07766 23-126)
# T1 construct: also called CD3ε
# T1 sequence (P07766 23-126 limits assumed): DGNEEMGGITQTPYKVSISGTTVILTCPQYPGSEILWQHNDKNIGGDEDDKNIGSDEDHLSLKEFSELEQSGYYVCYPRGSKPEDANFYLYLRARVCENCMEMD
# Assay: SPR
binder,measurement,value
B1,Kd,20.4 nM
B2,Kd,59.3 nM
B3,Kd,9.42 nM
B4,Kd,82.3 nM
B5,Kd,4.42 nM
B6,Kd,59.7 nM
B7,Kd,47.8 nM
B8,Kd,71.5 nM
B9,Kd,5.88 nM
B10,Kd,0.0586 nM
B11,Kd,40.7 nM
B12,Kd,6.7 nM
B13,Kd,71.8 nM
B14,Kd,8.85 nM
B15,Kd,62.7 nM
B16,Kd,57.6 nM
B17,Kd,120 nM
B18,Kd,67.9 nM
B19,Kd,21.3 nM
B20,Kd,73.7 nM
B21,Kd,15.6 nM
B22,Kd,98.8 nM
B23,Kd,6.83 nM
B24,Kd,43.1 nM
B25,Kd,77.9 nM
B26,Kd,60.2 nM
B27,Kd,101 nM
B28,Kd,20.3 nM
B29,Kd,4.75 nM
B30,Kd,29.1 nM
B31,Kd,29.1 nM
B32,Kd,45.2 nM
B33,Kd,9.46 nM
B34,Kd,59.5 nM
B35,Kd,76.3 nM
B36,Kd,38.8 nM
B37,Kd,101 nM
B38,Kd,47.9 nM
B39,Kd,30.7 nM
B40,Kd,18.8 nM
B41,Kd,44.9 nM
B42,Kd,71.1 nM
B43,Kd,17.1 nM
B44,Kd,112 nM
B45,Kd,13.5 nM
B46,Kd,10.4 nM
B47,Kd,43.5 nM
B48,Kd,115 nM
B49,Kd,73.2 nM
